The test deals with RSV F on RSV-A2 virus (Respiratory syncytial virus (RSV-A2)). In words: cell-based or functional assay.

Where a chain is given by its changes, count along the chain named. Bounds are passed on as bounds.

B1: ADI-41250 (antibody, V domains shown)
VH: QVQLQQWGAGLLKPSETLSLTCAVSGESLTGYFWSWIRQPPGKGLEWIGEVSHSGSTNYNPSLKSRVTMSVDTSKTQFSLKLNSVTAADTAVYYCARGYDYWSGTARYFDYWGQGILVTVSS
VL: QPVLTQPASVSGSPGQSITISCTGTSSDVGGYNYVSWYQQHPGKAPKLMIYDVSNRPSGVSSRFSGSKSGNTASLTISGLQAEDEGDYYCSSYRSSTTSRVFGGGTKVTVL
As to B1, the “Neutralization IC50 (RSV subtype A)” value was over 25 mg/L.

B2: ADI-41241 (antibody, V domains shown)
VH: QVQLVQSGAEVKKPGASVQVSCKASGYTFTGDYMHWVRQAPGQGLEWMGRINPNSGGTNYAQKFQGRVTMTRDTSISTAYMELSRLRSDDTAVYYCARAAAEYSSSSPTSYYYMDVWGKGTTVTVSS
VL: EIQMTQSPSSLSASVGDRVTITCRASQNIYSFLNWYQQKPGKAPKLLIYAASSLQSGVPSRFSGSGSATDFTLTISSLQPEDFATYYCQQSYSPPQITFGQGTKVDIK
B2: the “Neutralization IC50 (RSV subtype A)” value was determined as 18.8 mg/L.

B3: ADI-41239 (antibody, V domains shown)
VH: QITLKESGPTLVKPTQTLTLTCTFSGFSLTTTGVGVGWIRQPPGKALEWLALIYWDDDKRYSPSLKNRITITKDTSKKQVVLTMTNMDPADTATYYCAHISTVVTYDSSGSYYVLINWFDPWGQGTLVTVSS
VL: not shown
On to B3, for which the “Neutralization IC50 (RSV subtype A)” value is over 25 mg/L.

B4: ADI-41237 (antibody, V domains shown)
VH: EVQLVESGGGLVKPGGSLRLSCAASGFTFSDYYMNWIRQAPGKGLEWVSDISPSSSYTNYADSVKGRFTISRDNAKNSLYLQMNSLRAEDTAMYYCARRGSCTGGVCSFDYWGQGTLVTVSS
VL: QPGLTQPPSVSGAPGQRVTISCTGSSSNIGAGYDVNWYQQLPGTAPKLLIYDNSNRPSGVPDRFSGSKSGTSASLAITGLQAEDEADFYCQSYDSSLSGFVFGTGTKVTVL
On to B4, for which the “Neutralization IC50 (RSV subtype A)” value turned out to be 0.04 mg/L.

B5: ADI-41245 (antibody, V domains shown)
VH: QVQLVESGGGLVKPGGSLRLSCAASGFSFSAYYMSWIRQAPGKGLEWISNISGGSSYANYADSVEGRFTISRDNAKNSLYLQMNSLRAEDTAVYYCAREFQTYYYMDVWGKGTTVTVSS
VL: B4 VL with G3V, D34E, N36H, D52G, S54N, F88Y, F100S, T104G, V108L
Turning to B5, the “Neutralization IC50 (RSV subtype A)” value turned out to be 0.71 mg/L.

B6: ADI-41251 (antibody, V domains shown)
VH: EVQLVESGGGLVKPGGSLRLSCAASGFTFSDYYMTWIRQAPGKGLEWVSNISGGSSYTNYADSVKGRFTISRDNAKNSVYLQMNSLRAEDTAVYYCARVGCSGGVCNFFLDYWGQGTLVTVSS
VL: B4 VL with P2S, G3V, N36H, S54T, F88Y, F100Y
On to B6, for which the “Neutralization IC50 (RSV subtype A)” value was found to be 0.11 mg/L.

B7: ADI-41238 (antibody, V domains shown)
VH: EVQLLESGGGLVKPGGSLRLSCAASGFTFRDYYMSWIRQAPGKGLEWVSYISSSSSYTEYADSVKGRFTISRDNAKKSLYLQMNSLRTEDTAVYYCARVITQAGTGTTYYMDVWGKGTTVTVSS
VL: QSVLTQPPSVSGAPGQRVTISCTGSSSNIGTGYDVHWYQQLPGTAPKLLIYANNNRPSGVPDRFSGSKSGTSASLAITGLQAEDEADYYCQSYDSSLSLVFGGGTKLTVL
Regarding B7, the “Neutralization IC50 (RSV subtype A)” value stood at 0.13 mg/L.

B8: ADI-41246 (antibody, V domains shown)
VH: EVQLLESGPGLVKPSETLSLTCIVSGGSISSYNWNWIRQPPGKGLEWIGYIYNSGSTNYNPSLKSRVTISVDTSKNQFSLKLSSVTAADTAVYYCARYFDYGSGGFDYWGQGTLVTVSS
VL: ETTLTQSPGTLSLSPGERATLSCRASQSVTSTYLAWYQQKPGQAPRLLIYGASSRATGIPDRFSGSGSGTDFTLTISRLEPEDFAVYYCQQFDSSLTFGGGTKVEIK
Regarding B8, the “Neutralization IC50 (RSV subtype A)” value was over 25 mg/L.

B9: ADI-41242 (antibody, V domains shown)
VH: EVQLVESGGGVVQPGRSLRLSCAASGFPFSSYAMHWVRQAPGKGLEWVAVIWFEGNEKYFADSVEGRFTISRDNSKNTLYLQMNSLRAEDTARYYCARFYFGAFDIWGQGTLVTVSS
VL: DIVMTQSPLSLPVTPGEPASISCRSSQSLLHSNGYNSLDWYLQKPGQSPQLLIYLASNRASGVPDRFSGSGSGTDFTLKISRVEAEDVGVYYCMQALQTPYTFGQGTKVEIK
B9: the “Neutralization IC50 (RSV subtype A)” value was over 25 mg/L.

B10: ADI-41243 (antibody, V domains shown)
VH: QVQLVQSRAEVKKPGESLKISCKGSLHSFSNNWIGWVRQMPGKGLEWMGIIFPDDSDTRYSPSFQGQVTISADKSISTAYLQWSSLKASDTAIYYCGTVVTLIQGVADWGQGTLVTVSS
VL: QPVLTQPHSVSESPGKTVTISCTRSSGSIDSSYVQWYQQRPGSSPTTVIYEDNLRPSGVPDRFSGSIDSSSNSASLTISGLKTEDEAEYYCQSYDSSNPVVFGGGTKLTVL
For the molecule B10, the “Neutralization IC50 (RSV subtype A)” value was over 25 mg/L.

B11: ADI-41248 (antibody, V domains shown)
VH: QVQLVQSGGGVVQPGRSLRLSCAASGFTFSSYSMHWVRQAPGKGLEWMAVCWYDGSNIYYADSVKGRFTISRDNSKNTVYLQMNSLRAEDTAVYYCARDDRYCSGGTCLSAFDIWGQGTMVTVSS
VL: ETTLTQSPSSLSASVGDRVTITCRASQSISSYLNWYQQKPGRAPKLLIYTTSSLQSGVSSRFSGSGSGTDFTLTINSLQPEDFATYYCQQSYSTPNTFGQGTKVEIK
Turning to B11, the “Neutralization IC50 (RSV subtype A)” value is over 25 mg/L.

B12: ADI-41240 (antibody, V domains shown)
VH: QVQLQQWGAGLLKPSETLSLICDVYGGSFSDYYWSWIRQSPGKGLEWIGEINHSGSTSFHPSLKSRISISIDTSNNQFSLNLSSMTAADTAVYYCARGTLRGYFDYWGQGTLVTVSS
VL: EIVLTQSPSTLSAFVGDRVTITCRASQSISRWLAWYQQKPGKAPNLLISEASSLESGVPSRFSGSGSGTEFTLTISSLQPDDLGTYYCQQYNGYLWTFGQGTKVEIK
In the case of B12, the “Neutralization IC50 (RSV subtype A)” value is over 25 mg/L.

B13: ADI-41244 (antibody, V domains shown)
VH: QVTLKESGGGLIQPGGSLRLSCAVSGFTVSSKYMSWVRQAPGKGLEWVSVIYGGGSTYYTDSVKGRFTISRDNSNNTLYLQMNSLRAEDTAIYYCAREARSYNYDYVGNDAFDIWGQGTTVTVSS
VL: DIVLTQTPDSLAVSLGERATINCKSSQSVLNNFNNKNYLAWYQQKPGQPPKLLIYWASTRESGVPDRFSGSGSGTDFTLTITSLQAEDVAIYYCQQYYRTPPYTFGQGTKVDIK
On to B13, for which the “Neutralization IC50 (RSV subtype A)” value is over 25 mg/L.

B14: ADI-41247 (antibody, V domains shown)
VH: QVQLVQSGAEVKKPGASLQVSCKASGYTFTDSYFHWVRQAPGQGLEWMGRISPHSGGTNYAQKFQGRVTMTRDTSISTAYLELSRLRSDDTAVYYCATEGPRGPFRFDPWGQGTLVTVSS
VL: NFMLTQPHSVSESPGKTVTISCTRSSGSIASNYVQWYQQRPGSSPTTVIYEDNQRPSGVPDRFSGSIDSSSNSASLTISGLMTEDEADYYCQSYDSSNWVFGGGTKLTVL
Consider B14, for which the “Neutralization IC50 (RSV subtype A)” value is over 25 mg/L.

B15: ADI-41249 (antibody, V domains shown)
VH: QVQLVQSGAEVKKPGESLKISCQVSRDTSTTYWIGWVRQMPGKGLEWMGIIFPGDSDTRYSPSFQGQVTISADKSIMTAYLQLTSLKASDTAMYYCATQALRGAFDIWGQGTMVTVSS
VL: DIRLTQSPSSLSASVGDRVTITCQASQDISNYLNWYQQKPGKAPKLLIYDASYLETGVPSRFSGSGSGTDFTFTISSLQPEDFATYYCQQYDDLLFTFGPGTKLEIK
Regarding B15, the “Neutralization IC50 (RSV subtype A)” value was 0.01 mg/L.
